US20240010722A1 (published 2024)

T1: human MAdCAM (human, UniProt Q13477 19-317, limits assumed)
T1 construct: also called huMAdCAM; human MAdCAM-1
T1 sequence (looked up): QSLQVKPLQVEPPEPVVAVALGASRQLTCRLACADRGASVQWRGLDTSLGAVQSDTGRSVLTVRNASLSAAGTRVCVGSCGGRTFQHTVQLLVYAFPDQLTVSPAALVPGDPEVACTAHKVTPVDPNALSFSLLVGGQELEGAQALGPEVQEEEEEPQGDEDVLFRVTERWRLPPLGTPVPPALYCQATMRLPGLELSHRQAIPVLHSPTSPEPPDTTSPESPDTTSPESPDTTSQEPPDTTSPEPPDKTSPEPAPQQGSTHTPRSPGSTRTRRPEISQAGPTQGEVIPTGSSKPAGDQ

T2: mouse MAdCAM (mouse, UniProt Q61826 22-365, limits assumed)
T2 construct: also called mouse MAdCAM-1; muMAdCAM
T2 sequence (looked up): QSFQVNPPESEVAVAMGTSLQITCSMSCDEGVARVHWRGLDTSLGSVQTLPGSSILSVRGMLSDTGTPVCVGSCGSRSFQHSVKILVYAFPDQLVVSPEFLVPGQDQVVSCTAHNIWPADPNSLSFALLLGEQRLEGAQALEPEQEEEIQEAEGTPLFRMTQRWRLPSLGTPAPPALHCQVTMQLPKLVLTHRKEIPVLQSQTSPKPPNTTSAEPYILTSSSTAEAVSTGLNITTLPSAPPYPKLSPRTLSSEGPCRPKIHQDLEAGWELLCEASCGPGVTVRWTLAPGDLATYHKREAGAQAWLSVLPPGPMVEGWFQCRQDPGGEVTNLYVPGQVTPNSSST


Legend:
[1] = target: T1, human MAdCAM; assay: BLI (Octet), binder on anti-human Fc tips
[2] = target: T3, cyno MAdCAM (cynomolgus); assay: BLI (Octet), binder on anti-human Fc tips
T3 construct: also called cynomolgus MAdCAM

[3] = target: T2, mouse MAdCAM; assay: BLI (Octet), binder on anti-human Fc tips
[4] = target: Insulin; assay: polyreactivity ELISA on insulin coat, 100 nM
Insulin, sequence (P01308 25-54, chain 1 of 2): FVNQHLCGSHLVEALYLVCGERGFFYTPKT
Insulin, sequence (P01308 90-110, chain 2 of 2): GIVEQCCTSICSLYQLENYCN
Method: Non-specific DNA and Insulin binding is predictive of poor pharmacokinetics (PK). An immunosorbent plate was coated with dsDNA at a concentration of 1 μg/mL or Insulin at 5 μg/mL in PBS pH 7.4, 75 ul/well, and incubated overnight at 4° C. Wells were washed with PBS pH 7.4 containing 0.05% Tween-20 (wash buffer) three times, and then blocked with 200 ul/well 1% BSA in PBS pH 7.4 (block buffer) for two hours at room temperature. After three washes with wash buffer, TAs and controls Lenzilumab and Elotuzumab were diluted to 100 nM in PBS containing 1% BSA and 0.05% Tween-20 (assay buffer). The diluted material was added to the DNA/insulin coated plate at 75 ul/well for 1 hour at room temperature. After three washes with wash buffer, a donkey anti-human FcY HRP conjugated polyclonal antibody, diluted to 1:5000 in assay buffer, was added to the plate at 75 ul/well for 1 hr at room temperature. After three washes with wash buffer and three washes with wash buffer (with no tween-20), the assay was developed with TMB, and stopped with 1N HCL. OD 450 nm was measured. The experiment included appropriate controls for non-specific binding of test articles to the plate/block in the absence of DNA or insulin.

Binder	Kd [1] [µM]	Kd [2] [µM]	Kd [3] [µM]	Insulin polyreactivity score [4]	koff [1] [s⁻¹]	kon [1] [M⁻¹ s⁻¹]	binding result [1]
MIAB208 (antibody, V domains shown, tested with human Fc) VH: EVQLLESGGGLVQPGGSLRLSCAASGFTFDDYAMHWVRQAPGKGLEWVASITSSSAFIDYADSVKGRFTISRDNSKNTLYLQMNSLRAEDTAVYYCARERVDWNSYFDLWGQGTLVTVSS VL: EIVMTQSPATLSVSPGERATLSCRASQSVYSNLAWYQQKPGQAPRLLIYDASTRATGIPARFSGSGSGTEFTLTISSLQSEDFAVYYCQQYHIWPPTFGQGTKVEIK	0.0202	0.142	0.0751	–	–	–	–
MIAB25 (antibody, V domains shown, tested with human Fc) VH: EVQLLESGGGLVQPGGSLRLSCAASGFIFDDYAMHWVRQAPGKGLEWVASITSSSAFIDYADSVKGRFTISRDNSKNTLYLQMNSLRAEDTAVYYCARERVDWFSYFDLWGQGTLVTVSS VL: EIVMTQSPATLSVSPGERATLSCRASQSVSNNLVWYQQKPGQAPRLLIYDASTRATGIPARFSGSGSGTEFTLTISSLQSEDFAVYYCQQYSHWPPTFGQGTKVEIK	0.0469	0.0608	0.131	–	–	–	–
MIAB205 (antibody, V domains shown, tested with human Fc) VH: EVQLLESGGGLVQPGGSLRLSCAASGFTFDDYAMHWVRQAPGKGLEWVASITSSSAFIDYADSVKGRFTISRDNSKNTLYLQMNSLRAEDTAVYYCARERVDWFSYFDLWGQGTLVTVSS VL: EIVMTQSPATLSVSPGERATLSCRASQSVYSNLAWYQQKPGQAPRLLIYRASTRATGIPARFSGSGSGTEFTLTISSLQSEDFAVYYCQQYHIWPPTFGQGTKVEIK	0.0563	0.117	0.0422	–	–	–	–
MIAB209 (antibody, V domains shown, tested with human Fc) VH: EVQLLESGGGLVQPGGSLRLSCAASGFTFDDYAMHWVRQAPGKGLEWVASITSSSAFIDYADSVKGRFTISRDNSKNTLYLQMNSLRAEDTAVYYCARERVDWNSYFDLWGQGTLVTVSS VL: EIVMTQSPATLSVSPGERATLSCRASQSVYSNYLAWYQQKPGQAPRLLIYRASTRATGIPARFSGSGSGTEFTLTISSLQSEDFAVYYCQQYSHWPPTFGQGTKVEIK	0.0611	0.099	0.0352	–	–	–	–
MIAB207 (antibody, V domains shown, tested with human Fc) VH: EVQLLESGGGLVQPGGSLRLSCAASGFTFDDYAMHWVRQAPGKGLEWVASITSSSAFIDYADSVKGRFTISRDNSKNTLYLQMNSLRAEDTAVYYCARERVDWNSYFDLWGQGTLVTVSS VL: EIVMTQSPATLSVSPGERATLSCRASQSVYSNLVWYQQKPGQAPRLLIYRASTRATGIPARFSGSGSGTEFTLTISSLQSEDFAVYYCQQYHIWPPTFGQGTKVEIK	0.0835	0.0737	0.024	–	–	–	–
MIAB206 (antibody, V domains shown, tested with human Fc) VH: EVQLLESGGGLVQPGGSLRLSCAASGFTFDDYAMHWVRQAPGKGLEWVASITSSSAFIDYADSVKGRFTISRDNSKNTLYLQMNSLRAEDTAVYYCARERVDWYSYFDLWGQGTLVTVSS VL: EIVMTQSPATLSVSPGERATLSCRASQSVYSNLAWYQQKPGQAPRLLIYRASTRATGIPARFSGSGSGTEFTLTISSLQSEDFAVYYCQQYHIWPPTFGQGTKVEIK	0.0743	0.0895	0.0076	–	–	–	–
MIAB133 (antibody, V domains shown, tested with human Fc; also called MIAB133-001) VH: EVQLLESGGGLVQPGGSLRLSCAASGFTFSSFWMHWVRQAPGKGLEWISYISGDSGYTNYADSVKGRFTISRDNSKNTLYLQMNSLRAEDTAVYYCARDRPYYYYMDVWGKGTTVTVSS VL: DIQMTQSPSSLSASVGDRVTITCRASQSVSRSLAWYQQKPGKAPKLLIYAASSLQSGVPSRFSGSGSGTDFTLTISSLQPEDFATYYCQQYKSYPVTFGQGTKVEIK	0.02	–	–	13.2	0.0113	–	–
MIAB137 (antibody, V domains shown, tested with human Fc) VH: EVQLLESGGGLVQPGGSLRLSCAASGFTFSDFWMHWVRQAPGKGLEWVSAISGSGGSTYYADSVKGRFTISRDNSKNTLYLQMNSLRAEDTAVYYCARDRPYYYYMDVWGKGTTVTVSS VL: DIQMTQSPSSLSASVGDRVTITCRASQSVSRSLAWYQQKPGKAPKLLIYAASSLQSGVPSRFSGSGSGTDFTLTISSLQPEDFATYYCQQYKSYPVTFGQGTKVEIK	0.203	–	–	67.3	0.082	404000	–
MIAB136 (antibody, V domains shown, tested with human Fc) VH: EVQLLESGGGLVQPGGSLRLSCAASGFTFSSYAMSWVRQAPGKGLEWISYISGDSGYTNYADSVKGRFTISRDNSKNTLYLQMNSLRAEDTAVYYCARDRPYYYYMDVWGKGTTVTVSS VL: DIQMTQSPSSLSASVGDRVTITCRASQSVSRSLAWYQQKPGKAPKLLIYAASSLQSGVPSRFSGSGSGTDFTLTISSLQPEDFATYYCQQYKSYPVTFGQGTKVEIK	–	–	–	75.4	–	–	no binding (tested: 150 nM)

Further binders by falling Kd [1], results first:

Kd [1] [µM]	Kd [2] [µM]	Kd [3] [µM]	Insulin polyreactivity score [4]	koff [1] [s⁻¹]	kon [1] [M⁻¹ s⁻¹]	binding result [1]	Binder
0.0504	0.092	0.117	–	–	–	–	MIAB121 (antibody, V domains shown, tested with human Fc) VH: EVQLLESGGGLVQPGGSLRLSCAASGFIFDDYAMHWVRQAPGKGLEWVASITSSSAFIDYADSVKGRFTISRDNSKNTLYLQMNSLRAEDTAVYYCARERVDWFSYFDLWGQGTLVTVSS VL: EIVMTQSPATLSVSPGERATLSCRACPSVSNNLVWYQQKPGQAPRLLIYDASTRATGIPARFSGSGSGTEFTLTISSLQSEDFAVYYCQQYSHWPPTFGQGTKVEIK
0.0491	0.0785	0.0099	–	–	–	–	MIAB26 (antibody, V domains shown, tested with human Fc) VH: EVQLLESGGGLVQPGGSLRLSCAASGFTFDDYAMHWVRQAPGKGLEWVASITSSSAFIDYADSVKGRFTISRDNSKNTLYLQMNSLRAEDTAVYYCARERVDWNSYFDLWGQGTLVTVSS VL: EIVMTQSPATLSVSPGERATLSCRASQSVYSNLAWYQQKPGQAPRLLIYRASTRATGIPARFSGSGSGTEFTLTISSLQSEDFAVYYCQQYHIWPPTFGQGTKVEIK
0.0459	0.0334	0.0066	–	–	–	–	MIAB13 (antibody, V domains shown, tested with human Fc) VH: EVQLLESGGGLVQPGGSLRLSCAASGFTFDDYAMHWVRQAPGKGLEWVASITSSSAFIDYADSVKGRFTISRDNSKNTLYLQMNSLRAEDTAVYYCARERVLWNSYFDLWGQGTLVTVSS VL: EIVMTQSPATLSVSPGERATLSCRASQNVNNNLAWYQQKPGQAPRLLIYDATTRATGIPARFSGSGSGTEFTLTISSLQSEDFAVYYCQQYYHWPQTFGQGTKVEIK
0.0397	0.0779	0.164	–	–	–	–	MIAB123 (antibody, V domains shown, tested with human Fc) VH: EVQLLESGGGLVQPGGSLRLSCAASGFIFDDYAMHWVRQAPGKGLEWVASITSSSAFIDYADSVKGRFTISRDNSKNTLYLQMNSLRAEDTAVYYCARERVDWFSYFDLWGQGTLVTVSS VL: EIVMTQSPATLSVSPGERATLSCRASQSVSNNYLVWYQQKPGQAPRLLIYDASTRATGIPARFSGSGSGTEFTLTISSLQSEDFAVYYCQQYSHWPPTFGQGTKVEIK
0.0222	–	–	4.58	0.00897	405000	–	MIAB145 (antibody, V domains shown, tested with human Fc; also called MIAB145-001) VH: EVQLLESGGGLVQPGGSLRLSCAASGFTFSDFWMHWVRQAPGKGLEWISYISGDSGYTNYADSVKGRFTISRDNSKNTLYLQMNSLRAEDTAVYYCARDRPYYYYMDVWGKGTTVTVSS VL: DIQMTQSPSSLSASVGDRVTITCRASQSISRSLAWYQQKPGKAPKLLIYAASSLQSGVPSRFSGSGSGTDFTLTISSLQPEDFATYYCQQYKSYPVTFGQGTKVEIK
